# Earlier results, collected in paper PMC10380471.
# Read-outs that look alike come from different tables or passages of the source.
# Key:
# consensus peptide [1] = target: consensus peptide
# consensus peptide [2] = target: consensus peptide; remark: listed apart in the source
# consensus peptide [3] = target: consensus peptide; remark: listed apart in the source
# Pim-2, sequence (Q9P1W9 whole entry): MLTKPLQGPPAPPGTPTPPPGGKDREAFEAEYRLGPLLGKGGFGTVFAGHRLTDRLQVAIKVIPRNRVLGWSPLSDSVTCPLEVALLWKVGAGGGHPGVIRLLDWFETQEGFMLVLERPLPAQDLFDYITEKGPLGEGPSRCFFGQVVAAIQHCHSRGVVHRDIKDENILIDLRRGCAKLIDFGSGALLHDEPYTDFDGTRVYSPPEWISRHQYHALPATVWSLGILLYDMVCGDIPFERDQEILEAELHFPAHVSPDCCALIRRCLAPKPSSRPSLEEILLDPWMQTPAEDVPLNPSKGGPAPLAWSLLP
# Pim-1, sequence (P11309 whole entry): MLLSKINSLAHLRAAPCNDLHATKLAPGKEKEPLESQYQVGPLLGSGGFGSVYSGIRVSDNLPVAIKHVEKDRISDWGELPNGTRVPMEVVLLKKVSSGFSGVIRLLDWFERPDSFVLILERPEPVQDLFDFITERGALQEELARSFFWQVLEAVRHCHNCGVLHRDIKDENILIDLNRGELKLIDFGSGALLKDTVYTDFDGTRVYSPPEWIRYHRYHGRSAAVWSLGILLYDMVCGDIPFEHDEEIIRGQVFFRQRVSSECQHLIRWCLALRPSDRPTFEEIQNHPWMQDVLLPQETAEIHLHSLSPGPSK
substance,measurement,setting,value
Pim-1 (from UniProt P11309),Kd,consensus peptide [1],58 nM
Pim-2 (from UniProt Q9P1W9),Kd,consensus peptide [2],640 nM
Pim-3 (from UniProt Q86V86),Kd,consensus peptide [3],39 nM
